Measured values reported in publication PMC3761943 (Cell, 2013).

Legend:
[1] = molecular target: T1, kinesin-4ΔN (human kinesin-4, aa 733-1232) (human, UniProt O95239 733-1232); assay: pull-down
T1 sequence (looked up): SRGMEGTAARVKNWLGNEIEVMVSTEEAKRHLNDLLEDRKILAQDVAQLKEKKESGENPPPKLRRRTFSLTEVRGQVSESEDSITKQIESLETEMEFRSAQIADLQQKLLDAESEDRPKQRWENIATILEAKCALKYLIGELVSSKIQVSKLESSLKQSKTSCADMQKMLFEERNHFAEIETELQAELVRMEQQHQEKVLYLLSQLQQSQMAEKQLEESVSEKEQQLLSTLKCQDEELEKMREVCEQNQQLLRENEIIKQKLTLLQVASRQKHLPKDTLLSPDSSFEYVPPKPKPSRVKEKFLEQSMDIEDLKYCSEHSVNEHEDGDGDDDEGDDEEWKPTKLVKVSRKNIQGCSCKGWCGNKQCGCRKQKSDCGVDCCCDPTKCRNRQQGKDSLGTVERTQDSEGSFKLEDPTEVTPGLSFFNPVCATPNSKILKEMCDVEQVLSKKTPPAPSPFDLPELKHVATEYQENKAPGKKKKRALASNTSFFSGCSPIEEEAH

SEC = molecular target: the molecule itself; assay: SEC

Kd [1]: 210 ± 10 nM
B1: PRC1ΔN1SΔC (human PRC1, aa 19-486) (domain or fragment, UniProt O43663 19-486, looked up)
chain: LNHLREIWELIGIPEDQRLQRTEVVKKHIKELLDMMIAEEESLKERLIKSISVCQKELNTLCSELHVEPFQEEGETTILQLEKDLRTQVELMRKQKKERKQELKLLQEQDQELCEILCMPHYDIDSASVPSLEELNQFRQHVTTLRETKASRREEFVSIKRQIILCMEALDHTPDTSFERDVVCEDEDAFCLSLENIATLQKLLRQLEMQKSQNEAVCEGLRTQIRELWDRLQIPEEEREAVATIMSGSKAKVRKALQLEVDRLEELKMQNMKKVIEAIRVELVQYWDQCFYSQEQRQAFAPFCAEDYTESLLQLHDAEIVRLKNYYEVHKELFEGVQKWEETWRLFLEFERKASDPNRFTNRGGNLLKEEKQRAKLQKMLPKLEEELKARIELWEQEHSKAFMVNGQKFMEYVAEQWEMHRLEKERAKQERQLKNKKQTETEMLYGSAPRTPSKRRGLAPNTPGKAR
stoichiometry N (SEC): 2
